T1: human Ubc13 (human, UniProt P61088 1-152)
T1 sequence (looked up): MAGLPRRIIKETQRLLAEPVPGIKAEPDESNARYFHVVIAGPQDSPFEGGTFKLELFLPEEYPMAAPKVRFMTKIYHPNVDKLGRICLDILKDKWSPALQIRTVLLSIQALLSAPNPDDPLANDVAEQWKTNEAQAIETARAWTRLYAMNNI

B1: human TRAF6 RZ123 (residues 50-211), wild type (domain or fragment, UniProt Q9Y4K3 50-211, looked up)
chain: MEEIQGYDVEFDPPLESKYECPICLMALREAVQTPCGHRFCKACIIKSIRDAGHKCPVDNEILLENQLFPDNFAKREILSLMVKCPNEGCLHKMELRHLEDHQAHCEFALMDCPQCQRPFQKFHINIHILKDCPRRQVSCDNCAASMAFEDKEIHDQNCPLA
B2: human TRAF6 RZ12 (residues 50-187) (domain or fragment, UniProt Q9Y4K3 50-187, looked up)
chain: MEEIQGYDVEFDPPLESKYECPICLMALREAVQTPCGHRFCKACIIKSIRDAGHKCPVDNEILLENQLFPDNFAKREILSLMVKCPNEGCLHKMELRHLEDHQAHCEFALMDCPQCQRPFQKFHINIHILKDCPRRQV
B3: human TRAF6 RZ1 (residues 50-159) (domain or fragment, UniProt Q9Y4K3 50-159, looked up)
chain: MEEIQGYDVEFDPPLESKYECPICLMALREAVQTPCGHRFCKACIIKSIRDAGHKCPVDNEILLENQLFPDNFAKREILSLMVKCPNEGCLHKMELRHLEDHQAHCEFAL

What was measured:
[1] = target: the molecule itself; test: SAXS
[2] = target: T1, human Ubc13; test: SEC

Row | Binder | stoichiometry N [1] | binding result [2]
1 | B1 | 2 | 
2 | B2 |  | binds
3 | B3 |  | binds

— publication PMC2834951 (Nature structural & molecular biology, 2009)
